B3: GST-mHOIP_(466–630) (domain or fragment, mouse, UniProt Q924T7 466-630, looked up)
chain: SCGDPEKQRQDKMRKEGLQLVSMIQEGETAGASPEEVFSALQYSGTEVPLQWLRSELSYVLEMVAELAGQQDPELGAFSCQEARKAWLDRHGNLDEAVEECVRARRRKVHELQSLGFGPKEGSLQALFQHGGDVARALTELQRQRLEPFHQRLWDRDPEPTPCWD
notes: Captured on the SPR chip via an anti-GST antibody; also called mHOIP fragment containing the UBA domains; not shown: GST, N-terminal, kept
B6: mHOIL-1L_(1–140) (domain or fragment, mouse, UniProt Q9WUB0 1-140, looked up)
chain: MDEKTKKAEEMALSLARAVAGGDEQAAIKYATWLAEQRVPLRVQVKPEVSPTQDIRLCVSVEDAYMHTVTIWLTVRPDMTVASLKDMVFLDYGFPPSLQQWVVGQRLARDQETLHSHGIRRNGDGAYLYLLSARNTSLNP
notes: mouse HOIL-1L, LTM and UBL, aa 1-140; Used as SPR analyte and in the crystal; also called HOIL-1L LTM-UBL (aa 1–140); mHOIL-1L containing UBL (aa 1–140)
B7: mHOIP_(474–630) (domain or fragment, mouse, UniProt Q924T7 474-630, looked up)
chain: RQDKMRKEGLQLVSMIQEGETAGASPEEVFSALQYSGTEVPLQWLRSELSYVLEMVAELAGQQDPELGAFSCQEARKAWLDRHGNLDEAVEECVRARRRKVHELQSLGFGPKEGSLQALFQHGGDVARALTELQRQRLEPFHQRLWDRDPEPTPCWD
notes: also called double-UBA (D-UBA) domain
B8: mSHARPIN_(163–341) (domain or fragment, mouse, UniProt Q91WA6 163-341, looked up)
chain: SSGNFKKEELATRLSQAIAGGDEKAAAQVAAVLAQHHVALNVQLMEAWFPPGPIRLQVTVEDATSVLSSSSSAHVSLKIHPHCSIAALQDQVFSEFGFPPAVQRWVIGRCLCMPERSLASYGVSQDGDPAFLYLLSAPREVSGQSLQNSKMDRKLGLFPQSLGLPHDLQPSSSSLPSPS

In experiment [1] the target is B3. Nature of the experiment: SPR. The note with it: response read at end of injection (about 185 s); GST-mHOIP D-UBA WT immobilized with anti-GST antibody; parent: est. 270; read off a plot.
Experiment [2] concerns the target T1, mHOIL-1L_(1–140) and mSHARPIN_(163–301) applied together (mouse, UniProt Q9WUB0 1-140; Q91WA6 163-301).
T1 construct: mouse HOIL-1L aa 1-140, as m2; The two fragments were mixed and applied together as one SPR analyte; they heterodimerise through their LTMs; also called the two UBL-containing proteins applied simultaneously; both proteins together
T1 sequence (looked up) 1: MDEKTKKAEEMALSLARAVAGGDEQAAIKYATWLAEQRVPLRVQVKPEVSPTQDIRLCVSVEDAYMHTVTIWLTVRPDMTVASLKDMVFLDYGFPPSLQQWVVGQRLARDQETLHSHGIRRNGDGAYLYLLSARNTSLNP
T1 sequence (looked up) 2: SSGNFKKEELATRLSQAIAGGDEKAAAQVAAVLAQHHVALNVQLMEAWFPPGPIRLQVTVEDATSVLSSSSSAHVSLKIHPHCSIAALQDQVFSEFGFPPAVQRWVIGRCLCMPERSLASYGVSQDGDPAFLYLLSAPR
Nature of the experiment: SPR; GST-mHOIP D-UBA (aa 466–630; WT or mutant) immobilised via an anti-GST antibody; HOIL-1L and SHARPIN fragments applied together as analytes (500 mg/ml each as printed); stability judged by dissociation. The note with it: both partners purified.

Experiment [3] concerns the target B3. The experiment is described as follows: SPR; GST-mHOIP D-UBA (aa 466–630; WT or mutant) immobilised on the sensor chip via an anti-GST antibody; one UBL-containing fragment alone as analyte. The note with it: both partners purified.
Experiment [4] addresses T2, mHOIL-1L_(1–189)-strep (mouse, UniProt Q9WUB0 1-189).
T2 construct: mouse HOIL-1L LTM-UBL, aa 1-189; Captured on the SPR chip with an anti-strep antibody; also called HOIL-1L_(1–189) (LTM-UBL); not shown: strep, C-terminal, kept
T2 sequence (looked up): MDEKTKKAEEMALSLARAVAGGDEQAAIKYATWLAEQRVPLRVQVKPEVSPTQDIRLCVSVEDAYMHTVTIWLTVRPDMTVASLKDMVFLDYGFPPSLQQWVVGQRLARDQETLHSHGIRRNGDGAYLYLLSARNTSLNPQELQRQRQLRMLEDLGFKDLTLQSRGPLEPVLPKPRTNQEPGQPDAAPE
Nature of the experiment: SPR; mHOIL-1L_(1–189)-strep immobilised on the sensor chip with anti-strep antibody; MBP-mSHARPIN fragments as analytes. The note with it: both partners purified.

In experiment [5] the target is B7. Nature of the experiment: SEC; analytical size-exclusion chromatography of the LUBAC core subunits. The note with it: both partners purified.
In experiment [6] the target is B8. The experiment is described as follows: crystal structure; LUBAC ternary complex core; sitting-drop vapor diffusion at 20°C, 1.8 M magnesium sulfate, 0.1 M MES pH 6.5; 2.4 Å. The note with it: both partners purified.
Experiment [7] deals with B6. Nature of the experiment: SEC; analytical size-exclusion chromatography of the LUBAC core subunits. The note with it: both partners purified.

“mHOIL-1L_(1–140) and mSHARPIN_(163–301) applied together (from UniProt Q9WUB0;Q91WA6) mSHARPIN: L176A; I180A”: the response in experiment [1] came to 70 RU. For “mHOIL-1L_(1–140) and mSHARPIN_(163–301) applied together (from UniProt Q9WUB0;Q91WA6) mHOIL-1L: L15A; V19A”, the response in experiment [1] came to 90 RU.

B1: GST-mHOIP D-UBA (aa 466–630) UBA2^mut (domain or fragment, mouse, UniProt Q924T7 466-630, looked up)
chain: SCGDPEKQRQDKMRKEGLQLVSMIQEGETAGASPEEVFSALQYSGTEVPLQWLRSELSYVLEMVAELAGQQDPELGAFSCQEARKAWLDRHGNLDEAVEECVRARRRKVHELQSLGFGPKEGSLQALFQHGGDVARALTELARQRAEPAHQRLWDRDPEPTPCWD
notes: also called UBA2^mut [Q607A/L611A/F614A]; not shown: GST, N-terminal, kept
B1: the binding result in experiment [2] is “binds”.

B2: GST-mHOIP D-UBA (aa 466–630) UBA1^mut (domain or fragment, mouse, UniProt Q924T7 466-630, looked up)
chain: SCGDPEKQAQDKMRKEGAQLASMIQEGETAGASPEEVFSALQYSGTEVPLQWLRSELSYVLEMVAELAGQQDPELGAFSCQEARKAWLDRHGNLDEAVEECVRARRRKVHELQSLGFGPKEGSLQALFQHGGDVARALTELQRQRLEPFHQRLWDRDPEPTPCWD
notes: also called UBA1^mut [R474A/L483A/V486A]; not shown: GST, N-terminal, kept
As for B2, in experiment [2], the binding result is recorded as “binds”. In experiment [2], B3 yielded a koff of 0.000111 s⁻¹.

B4: mSHARPIN_(163–301) (domain or fragment, mouse, UniProt Q91WA6 163-301, looked up)
chain: SSGNFKKEELATRLSQAIAGGDEKAAAQVAAVLAQHHVALNVQLMEAWFPPGPIRLQVTVEDATSVLSSSSSAHVSLKIHPHCSIAALQDQVFSEFGFPPAVQRWVIGRCLCMPERSLASYGVSQDGDPAFLYLLSAPR
notes: No tag is named for these experiments; it may be the same MBP fusion as m12; also called SHARPIN LTM-UBL
In the case of B4, in experiment [3], binding was characterised by a dissociation constant (Kd) of 16000 nM.

B5: MBP-mSHARPIN UBL_(163–301) (domain or fragment, mouse, UniProt Q91WA6 163-301, looked up)
chain: SSGNFKKEELATRLSQAIAGGDEKAAAQVAAVLAQHHVALNVQLMEAWFPPGPIRLQVTVEDATSVLSSSSSAHVSLKIHPHCSIAALQDQVFSEFGFPPAVQRWVIGRCLCMPERSLASYGVSQDGDPAFLYLLSAPR
notes: not shown: MBP, N-terminal, kept
In experiment [4], B5 showed a Kd of 2040 nM and a koff of 0.00361 s⁻¹. On to B6, for which the “stoichiometry N” value in experiment [5] stood at 1. Further, the binding result in experiment [6] is “binds”. For the same molecule, binding in experiment [3] was characterised by a dissociation constant (Kd) of 1340 nM. Regarding B7, the binding result in experiment [6] is reported as “binds”. On to B8, for which the “stoichiometry N” value in experiment [5] and in experiment [7] was 1 each time.

Source of the values: publication PMC6044281, “Cooperative Domain Formation by Homologous Motifs in HOIL-1L and SHARPIN Plays A Crucial Role in LUBAC Stabilization” (Cell reports, 2018).
